According to PMC7510979, “Kinetic and structural insights into enzymatic mechanism of succinic semialdehyde dehydrogenase from Cyanothece sp. ATCC51142” (PLoS ONE, 2020):
Residue numbers refer to the chain shown, from its start. Numbers in names are those of the source.

What was measured:
[1] = target: T1, cce4228 protein (succinic semialdehyde dehydrogenase, SSADH) (Crocosphaera subtropica, UniProt B1WSJ7); test: initial velocity at […] nm; type: biochemical; settings: MgCl2, 50 mM CHES pH 9.0, 25°C, table marks wild-type data as from ref. 26, read-out: wild-type^e, cited from earlier work
T1 construct: gene gabD; full ORF in pET-28a, N-terminal 6xHis kept, E. coli BL21(DE3), Ni-NTA; native ca. 109 kDa
T1 sequence (B1WSJ7 1-455): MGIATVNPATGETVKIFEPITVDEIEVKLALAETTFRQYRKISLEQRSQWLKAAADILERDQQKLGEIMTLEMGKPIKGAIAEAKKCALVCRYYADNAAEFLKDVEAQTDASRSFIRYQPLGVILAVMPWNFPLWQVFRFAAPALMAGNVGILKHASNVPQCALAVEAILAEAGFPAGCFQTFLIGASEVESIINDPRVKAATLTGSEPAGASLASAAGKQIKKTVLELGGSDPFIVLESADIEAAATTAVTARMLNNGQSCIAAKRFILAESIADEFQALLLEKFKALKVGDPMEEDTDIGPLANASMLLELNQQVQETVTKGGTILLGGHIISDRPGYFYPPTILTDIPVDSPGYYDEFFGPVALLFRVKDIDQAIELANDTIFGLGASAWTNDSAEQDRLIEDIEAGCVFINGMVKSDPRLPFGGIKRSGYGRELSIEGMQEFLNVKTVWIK

[2] = target: succinic semialdehyde dehydrogenase cce4228 protein from Cyanothece sp. ATCC51142 (wild-type, recombinant) (Cyanothece sp. ATCC51142); test: SEC; size exclusion chromatography of purified recombinant cce4228 with standard protein ladders; native mass compared with the subunit mass
[3] = target: T1, cce4228 protein (succinic semialdehyde dehydrogenase, SSADH); test: initial velocity at […] nm, excess-substrate inhibition fit; type: biochemical; settings: 0.5 mM NADP+, MgCl2, 50 mM CHES pH 9.0, 25°C; table marks wild-type data as from ref. 26; read-out: wild-type^e; cited from earlier work
purified protein [4] = substrate: O=CCCC(=O)O; test: purified protein; type: biochemical, Crocosphaera subtropica; settings: MgCl2, 50 mM CHES pH 9.0, 25°C
purified protein [5] = substrate: NC(=O)c1ccc[n+]([C@@H]2O[C@H](COP(=O)(O)OP(=O)(O)OC[C@H]3O[C@@H](n4cnc5c(N)ncnc54)[C@H](OP(=O)(O)O)[C@@H]3O)[C@@H](O)[C@H]2O)c1; test: purified protein; type: biochemical, Crocosphaera subtropica; settings: 0.02 mM SSA, MgCl2, 50 mM CHES pH 9.0, 25°C, varied: cofactor
purified protein [6] = substrate: NC(=O)c1ccc[n+]([C@@H]2O[C@H](COP(=O)(O)OP(=O)(O)OC[C@H]3O[C@@H](n4cnc5c(N)ncnc54)[C@H](O)[C@@H]3O)[C@@H](O)[C@H]2O)c1; test: purified protein; type: biochemical, Crocosphaera subtropica; settings: 0.02 mM SSA, MgCl2, 50 mM CHES pH 9.0, 25°C, varied: cofactor

In the case of `NC(=O)c1ccc[n+]([C@@H]2O[C@H](COP(=O)(O)OP(=O)(O)OC[C@H]3O[C@@H](n4cnc5c(N)ncnc54)[C@H](O)[C@@H]3O)[C@@H](O)[C@H]2O)c1` [NAD^+], the Km ([1]; 0.02 mM SSA) is given as 1700 ± 200 µM.

For “succinic semialdehyde dehydrogenase cce4228 protein from Cyanothece sp. ATCC51142 (wild-type, recombinant) (enzyme)”, the stoichiometry N [2] was 2.

In the case of `NC(=O)c1ccc[n+]([C@@H]2O[C@H](COP(=O)(O)OP(=O)(O)OC[C@H]3O[C@@H](n4cnc5c(N)ncnc54)[C@H](OP(=O)(O)O)[C@@H]3O)[C@@H](O)[C@H]2O)c1` [NADP^+], the Km ([1]; 0.2 mM SSA) is listed as 34 ± 2 µM.

In the case of `O=CCCC(=O)O` [succinic semialdehyde], the Km [3] is given as 8 ± 3 µM.

B1: cce4228 protein (succinic semialdehyde dehydrogenase, SSADH) (Crocosphaera subtropica ATCC 51142; S420A) (protein)
chain: T1 sequence (B1WSJ7 1-455) with S420A
notes: full ORF in pET-28a, N-terminal 6xHis kept, E. coli BL21(DE3), Ni-NTA; native ca. 109 kDa
For B1, the Km (purified protein [4]; NADP+ as cofactor) was 70 ± 10 µM and the kcat (purified protein [4]; NADP+ as cofactor) was 9.3 ± 0.9 s⁻¹.

B2: cce4228 protein (succinic semialdehyde dehydrogenase, SSADH) (Crocosphaera subtropica ATCC 51142; S157E) (protein)
chain: T1 sequence (B1WSJ7 1-455) with S157E
notes: as for B1
With B2 the Km (purified protein [4]; 10 mM NADP+) was 2.8 ± 0.7 µM, the kcat (purified protein [4]; 10 mM NADP+) was 1.5 ± 0.1 s⁻¹ and the kcat/Km (purified protein [4]; 10 mM NADP+) was 535000 M⁻¹ s⁻¹. The Km (purified protein [5]) was 1100 ± 200 µM and the Km (purified protein [6]) was 510 ± 40 µM.

B3: cce4228 protein (succinic semialdehyde dehydrogenase, SSADH) (Crocosphaera subtropica ATCC 51142; R139A) (protein)
chain: T1 sequence (B1WSJ7 1-455) with R139A
notes: as for B1
For B3, the Km (purified protein [4]; NADP+ as cofactor) was 112 ± 8 µM and the kcat (purified protein [4]; NADP+ as cofactor) was 0.54 ± 0.01 s⁻¹.

B4: cce4228 protein (succinic semialdehyde dehydrogenase, SSADH) (Crocosphaera subtropica ATCC 51142; K154A) (protein)
chain: T1 sequence (B1WSJ7 1-455) with K154A
notes: as for B1
Work on B4 yielded a Km (purified protein [4]; 8 mM NADP+) of 20 ± 10 µM, a kcat (purified protein [4]; 8 mM NADP+) of 0.1 ± 0.05 s⁻¹ and a kcat/Km (purified protein [4]; 8 mM NADP+) of 5000 M⁻¹ s⁻¹. It also gave a Km (purified protein [5]) of 6100 ± 1500 µM and a Km (purified protein [6]) of 1500 ± 400 µM.
